Reference: PMC7660924, “NIGT1 family proteins exhibit dual mode DNA recognition to regulate nutrient response-associated genes in Arabidopsis” (PLoS Genetics, 2020)
Numbering of substitutions follows the chain as printed.

T1: NIGT1.1 L25A/L39A L25A;L39A (Arabidopsis thaliana (Col-0?)) (UniProt Q9FPE8)
T1 sequence: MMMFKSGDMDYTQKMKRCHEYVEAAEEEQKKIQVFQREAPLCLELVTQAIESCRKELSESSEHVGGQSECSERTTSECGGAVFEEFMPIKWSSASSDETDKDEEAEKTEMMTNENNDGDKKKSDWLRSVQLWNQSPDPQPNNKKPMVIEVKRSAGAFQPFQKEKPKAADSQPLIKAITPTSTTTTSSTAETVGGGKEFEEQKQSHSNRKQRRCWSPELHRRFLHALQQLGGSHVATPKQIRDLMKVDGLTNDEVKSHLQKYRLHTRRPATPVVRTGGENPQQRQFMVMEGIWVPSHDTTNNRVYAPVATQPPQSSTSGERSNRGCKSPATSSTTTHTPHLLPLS

T2: NIGT1.1 WT (Arabidopsis thaliana (Col-0?)) (UniProt Q9FPE8)
T2 sequence: T1 sequence with A25L, A39L

B1: Trx-6×His-NIGT1.1^WT-6×His recombinant protein (natural protein, Arabidopsis thaliana, UniProt Q9FPE8 1-344, looked up)
chain: T1 sequence with A25L, A39L
notes: NIGT1.1, Arabidopsis thaliana, At1g25550; cDNA encoding NIGT1.1^WT cloned into pET32-b(+) by NcoI and HindIII; expected mass of the recombinant protein 57.4 kDa; Plasmid pET32-NIGT1.1; also called recombinant NIGT1.1^WT; Trx-6×His-NIGT1.1-6×His; not shown: Trx, N-terminal, kept; 6×His, N-terminal, kept; 6×His, C-terminal, kept

Tests used:
[1] = molecular target: T1, NIGT1.1 L25A/L39A L25A;L39A (Arabidopsis thaliana (Col-0?)); assay: EMSA; conditions: EMSA: 15 ul reaction, 40 fmol biotin-labeled probe, 7.5-60 ng protein, 4% polyacrylamide gel; buffer, salt, pH and temperature not given (as in ref 24)
[2] = molecular target: T2, NIGT1.1 WT (Arabidopsis thaliana (Col-0?)); assay: EMSA; conditions: EMSA: 15 ul reaction, 40 fmol biotin-labeled probe, 7.5-60 ng protein, 4% polyacrylamide gel; buffer, salt, pH and temperature not given (as in ref 24)
[3] = molecular target: the molecule itself; assay: SEC-MALS; Shodex PROTEIN LW-803 column; 20 mM Tris-HCl (pH 7.5), 500 mM NaCl, 10% glycerol, room temperature; 1 mg/ml, 70 μl loaded; 0.8 ml/min

Molecule	binding [1]	binding [2]	stoichiometry N [3]
AATATTTAAATCGATAGTTAACCGTTGAGAATCTCCAAAGAATGCTTTTTTCATTGTCAACACTGGCTAGGAACCCTATATAAGCCATCGTGTGATTAATATTCAGACATCGCATGGTCATAGCTGTTTCCTGTGT (double strand) [P3-2]	binds more weakly	no binding	
AATGAATTAAGACGCGAATCGGGAAAATTCAATAAATTGTCCATTGGGGGGTGCTTTAAAGAAAGATTGAAAGATGCCGAGGTTTATACCCTTTTCCTATCAAGAATATTCCATGGAATCCAACTACTTTTGACCCATTTGCGTATTTGTTAAATCTTTTCAGAAAATCAAAAGTGGGTAAATTGTCAAACTAGTTGTAGTATTGAACTACTATTTATTGATCATGCCATCATCCATGGTCATAGCTGTTTCCTGTGT (double strand) [P1 (SPX1 promoter)]	binds more weakly	binds	
ACACAGGAAACAGCTATGACCATGAGCTCTTTTATTTTCTGGGAAACTTAAGTGAGAATGATGAATGAAGAAGAAAGAGAGGGGGAAGAGGTTTAGAGATATAAAAGGGATTAAAAAGAATATTCTTAAGGTTTCTAATTAGAATATCCTTTTTTCTCTGTCTTTCTTTCGGGAGAATATCTTCCTTTTATTCCTTTCTTATTTATTACTTTTTCGTGGTTATCTGTGGGTGAGATTATAACACATGCCTATGTCAGTTCATAAATATCAATCACAACTC (double strand) [P2 (SPX1 promoter)]	binds more weakly	binds	
ACACAGGAAACAGCTATGACCATGCAACGGTTAACTATCGATTTAAATATTAATTTTCGAGGAATCCATTTTCGCCGCAAGCATCTTCCTAGTCTCTCGCTTATCACCAAAGGTTGCCGATATCCTTCCAAATGACCGCTCTACCCTTCCCTCATCTTGC (double strand) [P3-1]	binds more weakly	no binding	
ACACAGGAAACAGCTATGACCATGCGATGTCTGAATATTAATCACACGATGGCTTATATAGGGTTCCTAGCCAGTGTTGACAATGAAAAAAGCATTCTTTGGAGATTCTCAACGGTTAACTATCGATTTAAATATTAATTTTCGAGGAATCCATTTTCGCCGCAAGCATCTTCCTAGTCTCTCGCTTATCACCAAAGGTTGCCGATATCCTTCCAAATGACCGCTCTACCCTTCCCTCATCTTGC (double strand) [P3 (NRT2.1 promoter)]	binds more weakly	binds	
B1			2
